Laboratory results reported in paper PMC5386376, “Structural insight into an evolutionarily ancient programmed cell death regulator – the crystal structure of marine sponge BHP2 bound to LB-Bak-2” (Cell Death & Disease, 2017).

B1: LB-Bak-2 BH3 peptide (residues 62-89) (peptide, UniProt Q1RPT5 62-89, looked up)
peptide: ALASSMASEVGRRLAEFGDQVDGQFYQE
notes: LB-Bak-2, Lubomirskia baicalensis, Uniprot Q1RPT5, BH3 motif, residues 62-89; also called LB-Bak-2 BH3 motif; LB-Bak-2 BH3 domain; source: synthetic peptide (GenScript), purified to 95%
B2: human Hrk BH3 peptide (peptide)
chain: not shown

Molecular target: T1, BHP2 (pro-survival Bcl-2 homolog from Geodia cydonium), residues 18-200 (Geodia cydonium, UniProt Q967D2 18-200)
T1 construct: BHP2, Geodia cydonium, Uniprot Q967D2, residues 18-200; codon-optimized synthetic cDNA; also called recombinant BHP2; source: E. coli BL21 (DE3) star, purified (Glutathione Sepharose 4B, HRV 3C protease cleavage on column, Superdex S200 SEC)
T1 sequence (looked up): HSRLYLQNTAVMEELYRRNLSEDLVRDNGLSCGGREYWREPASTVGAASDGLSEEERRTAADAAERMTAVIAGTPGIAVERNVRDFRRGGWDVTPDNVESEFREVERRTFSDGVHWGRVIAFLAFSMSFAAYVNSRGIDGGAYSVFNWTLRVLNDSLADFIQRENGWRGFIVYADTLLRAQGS
Assay: ITC; BH3 peptide (200 μM) titrated into BHP2 (20 μM), 19 injections of 2.0 μl, MicroCal iTC200, 25 °C, 25 mM HEPES pH 7.5, 150 mM NaCl; triplicate
Conditions: both partners purified

Row | Binder | Kd [nM]
1 | B1 | 65
2 | B2 | 3760
